Results published in patent US20080166749A1, “Fluorescent Protein Sensors of Post-Translational Modifications” (INVITROGEN CORPORATION, priority 1998, published 2008).

System: activated recombinant MAP kinase
Test: Phosphorylation of GFP Erk sensors by MAP kinase, ^32P incorporation
Assay type: biochemical
Settings: 10 μM substrate, 100 ng MAP kinase, 30 minutes at 30° C.; mean ± standard deviation of triplicates
From the text: Experiments were terminated and samples processed as described previously in subsection D.4. Results presented in Table X represent means of triplicate determinations ±standard deviations of ^32P-incorporation in washed pellets as described earlier.

B1: Myelin Basic Protein: a well-characterized substrate of Erk kinase (protein, UniProt P02687 1-169, looked up)
Myelin basic protein: AAQKRPSQRSKYLASASTMDHARHGFLPRHRDTGILDSLGRFFGSDRGAPKRGSGKDGHHAARTTHYGSLPQKAQGHRPQDENPVVHFFKNIVTPRTPPPSQGKGRGLSLSRFSWGAEGQKPGFGYGGRASDYKSAHKGLKGHDAQGTLSKIFKLGGRDSRSGSPMARR
  ^32P-Incorporation (CPM): 33361 ± 477 CPM
